From US20210162011A1

Molecular target: leptin receptor (LepRb), expressed on transfected HEK293 cells
Experiment: cell-based or functional assay

With leptin (ligand) the cells with a p-STAT3 positive nucleus, immunofluorescence was greater than 80%.
For “recombinant human Batotin protein with a six-amino-acid His tag at its C-terminus (from UniProt Q96GX8 1-76) (ligand)”, the cells with a p-STAT3 positive nucleus after leptin, immunofluorescence was less than 10%.
For “recombinant mouse Batotin protein (76 aa) with a six-amino-acid His tag at its C-terminus (from UniProt Q8K1L6 1-76) (ligand)”, the cells with a p-STAT3 positive nucleus after leptin, immunofluorescence was less than 10%.
